Data on 44 molecules can be found in US20220324969A1 (MYTHIC THERAPEUTICS, published 2022).

The target in the experiment is CD33 (Sino Biological, Cat #12238-H08H) (UniProt P20138 18-259). In words: BLI, IgG captured on anti-human Fc sensor, 50 nM CD33, pH 7.4 vs pH 5.4.

Positions count from the first letter of the chain named. In names and notes the source's numbering stands.

Chain of CD33 (Sino Biological, Cat #12238-H08H) (P20138 18-259 limits assumed): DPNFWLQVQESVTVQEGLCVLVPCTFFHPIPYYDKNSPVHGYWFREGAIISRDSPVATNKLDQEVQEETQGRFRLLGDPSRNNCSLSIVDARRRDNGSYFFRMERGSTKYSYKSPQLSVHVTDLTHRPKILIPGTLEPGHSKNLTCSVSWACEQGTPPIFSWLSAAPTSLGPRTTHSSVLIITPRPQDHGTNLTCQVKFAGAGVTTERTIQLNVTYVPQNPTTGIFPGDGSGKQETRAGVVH

B1: MYT1217 (antibody, V domains shown)
VH: QVQLQQPGAEVVKPGASVKMSCKASGYTFHSYYIHWIKQTPGQGLEWVGVIYPGNDDISYNQKFQGKATLTADKSSTTAYMQLSSLTSEDSAVYYCAREVRLRYFDVWGQGTTVTVSS
VL: EIVLTQSPGSLAVSPGERVTMSCKSSQSVFFSSSQKNYLAWYQQIPGQSPRLLIYWASTRESGVPDRFTGSGSGTDFTLTISSVQPEDLAIYYCHQYLSSRTFGQGTKLEIK
notes: IgG; IMGN779 VH variant #5 (T30H)
B1: the binding result is listed as “binds”.

B2: MYT1219 (antibody, V domains shown)
VH: B1 VH with H30T, Y32H
VL: B1 VL
notes: IgG; IMGN779 VH variant #7 (Y32H)
For the molecule B2, the binding result is “binds”.

B3: MYT1222 (antibody, V domains shown)
VH: B1 VH with H30T, H35A
VL: B1 VL
notes: IgG; IMGN779 VH variant #10 (H35A)
Take B3: the binding result is “binds”.

B4: MYT2618 (antibody, V domains shown)
VH: B1 VH with H30T
VL: B1 VL with S25H
notes: IgG; IMGN779 VL variant #2 (S25H)
On to B4, for which the binding result was “binds”.

B5: MYT2626 (antibody, V domains shown)
VH: B1 VH with H30T
VL: B1 VL with S33H
notes: IgG; IMGN779 VL variant #10 (S33H)
On to B5, for which the binding result is listed as “binds”.

B6: MYT1245 (antibody, V domains shown)
VH: B1 VH with H30T, L102H
VL: B1 VL
notes: IgG; IMGN779 VH variant #33 (L102H)
In the case of B6, the binding result is given as “binds”.

B7: MYT2623 (antibody, V domains shown)
VH: B1 VH with H30T
VL: B1 VL with F30H
notes: IgG; IMGN779 VL variant #7 (F30H)
For B7, the binding result was “binds”.

B8: MYT1224 (antibody, V domains shown)
VH: B1 VH with H30T, I51H
VL: B1 VL
notes: IgG; IMGN779 VH variant #12 (I51H)
In the case of B8, the binding result is listed as “binds”.

B9: MYT1236 (antibody, V domains shown)
VH: B1 VH with H30T, K63H
VL: B1 VL
notes: IgG; IMGN779 VH variant #24 (K63H)
B9: the binding result is “binds”.

B10: MYT1234 (antibody, V domains shown)
VH: B1 VH with H30T, N61H
VL: B1 VL
notes: IgG; IMGN779 VH variant #22 (N61H)
Turning to B10, the binding result was “binds”.

B11: MYT1223 (antibody, V domains shown)
VH: B1 VH with H30T, V50H
VL: B1 VL
notes: IgG; IMGN779 VH variant #11 (V50H)
As for B11, the binding result was “binds”.

B12: MYT1247 (antibody, V domains shown)
VH: B1 VH with H30T, Y104H
VL: B1 VL
notes: IgG; IMGN779 VH variant #35 (Y104H)
On to B12, for which the binding result was “binds”.

B13: MYT2619 (antibody, V domains shown)
VH: B1 VH with H30T
VL: B1 VL with S26H
notes: IgG; IMGN779 VL variant #3 (S26H)
Consider B13, for which the binding result is “binds”.

B14: MYT1229 (antibody, V domains shown)
VH: B1 VH with H30T, D56H
VL: B1 VL
notes: IgG; IMGN779 VH variant #17 (D56H)
On to B14, for which the binding result was “binds”.

B15: MYT1231 (antibody, V domains shown)
VH: B1 VH with H30T, I58H
VL: B1 VL
notes: IgG; IMGN779 VH variant #19 (I58H)
With B15, the binding result is recorded as “binds”.

B16: MYT1250 (antibody, V domains shown)
VH: B1 VH with H30T, V107H
VL: B1 VL
notes: IgG; IMGN779 VH variant #38 (V107H)
Turning to B16, the binding result is “binds”.

B17: MYT2625 (antibody, V domains shown)
VH: B1 VH with H30T
VL: B1 VL with S32H
notes: IgG; IMGN779 VL variant #9 (S32H)
In the case of B17, the binding result is “binds”.

B18: MYT1233 (antibody, V domains shown)
VH: B1 VH with H30T, Y60H
VL: B1 VL
notes: IgG; IMGN779 VH variant #21 (Y60H)
Regarding B18, the binding result is recorded as “binds”.

B19: MYT1248 (antibody, V domains shown)
VH: B1 VH with H30T, F105H
VL: B1 VL
notes: IgG; IMGN779 VH variant #36 (F105H)
Turning to B19, the binding result is given as “binds”.

B20: MYT1237 (antibody, V domains shown)
VH: B1 VH with H30T, F64H
VL: B1 VL
notes: IgG; IMGN779 VH variant #25 (F64H)
For B20, the binding result is listed as “binds”.

B21: MYT1232 (antibody, V domains shown)
VH: B1 VH with H30T, S59H
VL: B1 VL
notes: IgG; IMGN779 VH variant #20 (S59H)
B21: the binding result is recorded as “binds”.

B22: MYT1227 (antibody, V domains shown)
VH: B1 VH with H30T, G54H
VL: B1 VL
notes: IgG; IMGN779 VH variant #15 (G54H)
Consider B22, for which the binding result is recorded as “binds”.

B23: MYT2628 (antibody, V domains shown)
VH: B1 VH with H30T
VL: B1 VL with Q35H
notes: IgG; IMGN779 VL variant #12 (Q35H)
As to B23, the binding result is “binds”.

B24: MYT1230 (antibody, V domains shown)
VH: B1 VH with H30T, D57H
VL: B1 VL
notes: IgG; IMGN779 VH variant #18 (D57H)
For B24, the binding result was “binds”.

B25: MYT2627 (antibody, V domains shown)
VH: B1 VH with H30T
VL: B1 VL with S34H
notes: IgG; IMGN779 VL variant #11 (S34H)
For B25, the binding result is “binds”.

B26: MYT2624 (antibody, V domains shown)
VH: B1 VH with H30T
VL: B1 VL with F31H
notes: IgG; IMGN779 VL variant #8 (F31H)
Consider B26, for which the binding result was “binds”.

B27: MYT1221 (antibody, V domains shown)
VH: B1 VH with H30T, I34H
VL: B1 VL
notes: IgG; IMGN779 VH variant #9 (I34H)
In the case of B27, the binding result was “binds”.

B28: MYT2622 (antibody, V domains shown)
VH: B1 VH with H30T
VL: B1 VL with V29H
notes: IgG; IMGN779 VL variant #6 (V29H)
As for B28, the binding result is reported as “binds”.

B29: MYT1246 (antibody, V domains shown)
VH: B1 VH with H30T, R103H
VL: B1 VL
notes: IgG; IMGN779 VH variant #34 (R103H)
On to B29, for which the binding result was “binds”.

B30: MYT1243 (antibody, V domains shown)
VH: B1 VH with H30T, V100H
VL: B1 VL
notes: IgG; IMGN779 VH variant #31 (V100H)
B30: the binding result is reported as “binds”.

B31: MYT2617 (antibody, V domains shown)
VH: B1 VH with H30T
VL: B1 VL with K24H
notes: IgG; IMGN779 VL variant #1 (K24H)
Turning to B31, the binding result was “binds”.

B32: MYT1226 (antibody, V domains shown)
VH: B1 VH with H30T, P53H
VL: B1 VL
notes: IgG; IMGN779 VH variant #14 (P53H)
Turning to B32, the binding result is “binds”.

B33: MYT1228 (antibody, V domains shown)
VH: B1 VH with H30T, N55H
VL: B1 VL
notes: IgG; IMGN779 VH variant #16 (N55H)
In the case of B33, the binding result was “binds”.

B34: MYT1220 (antibody, V domains shown)
VH: B1 VH with H30T, Y33H
VL: B1 VL
notes: IgG; IMGN779 VH variant #8 (Y33H)
In the case of B34, the binding result is given as “binds”.

B35: MYT1241 (antibody, V domains shown)
VH: B1 VH with H30T, R98H
VL: B1 VL
notes: IgG; IMGN779 VH variant #29 (R98H)
On to B35, for which the binding result was “binds”.

B36: MYT1235 (antibody, V domains shown)
VH: B1 VH with H30T, Q62H
VL: B1 VL
notes: IgG; IMGN779 VH variant #23 (Q62H)
For B36, the binding result is “binds”.

B37: MYT1218 (antibody, V domains shown)
VH: B1 VH with H30T, S31H
VL: B1 VL
notes: IgG; IMGN779 VH variant #6 (S31H)
On to B37, for which the binding result is “binds”.

B38: MYT1238 (antibody, V domains shown)
VH: B1 VH with H30T, Q65H
VL: B1 VL
notes: IgG; IMGN779 VH variant #26 (Q65H)
For B38, the binding result was “binds”.

B39: MYT2621 (antibody, V domains shown)
VH: B1 VH with H30T
VL: B1 VL with S28H
notes: IgG; IMGN779 VL variant #5 (S28H)
Take B39: the binding result is on record as “binds”.

B40: MYT1244 (antibody, V domains shown)
VH: B1 VH with H30T, R101H
VL: B1 VL
notes: IgG; IMGN779 VH variant #32 (R101H)
Take B40: the binding result was “binds”.

B41: MYT2629 (antibody, V domains shown)
VH: B1 VH with H30T
VL: B1 VL with K36H
notes: IgG; IMGN779 VL variant #13 (K36H)
As to B41, the binding result is given as “binds”.

B42: MYT2620 (antibody, V domains shown)
VH: B1 VH with H30T
VL: B1 VL with Q27H
notes: IgG; IMGN779 VL variant #4 (Q27H)
For the molecule B42, the binding result is “binds”.

B43: MYT1225 (antibody, V domains shown)
VH: B1 VH with H30T, Y52H
VL: B1 VL
notes: IgG; IMGN779 VH variant #13 (Y52H)
Take B43: the binding result is reported as “binds”.

B44: MYT1239 (antibody, V domains shown)
VH: B1 VH with H30T, G66H
VL: B1 VL
notes: IgG; IMGN779 VH variant #27 (G66H)
B44: the binding result is listed as “binds”.
